Assay results: the nanobody polyreactivity screen of Harvey et al. (2022)

Experiment: yeast display, Sf9 membrane polyspecificity reagent, FACS + sequencing; frameworks hold sequencing errors
Procedure, shortened: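 After 36–48 hours of galactose induction, yeast (Saccharomyces cerevisiae BJ5465) displaying a synthetic nanobody library were stained at 4 °C for 1 hour with 10% biotinylated, detergent-solubilized Sf9 membrane reagent. Streptavidin microbeads enriched the stained cells before FACS sorting into low and high (top ~1%) gates on anti-HA and streptavidin fluorescence. Each clone's polyreactivity label reflects its gate of origin.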
In the case of “QVQLVESGGGLVQAGGSLRLSCAASGSTFYGYGMGWYRQAPGKERELVAAITGYGDTTYYADSVKGRFTISRDYAKNTVDLQMNSLKPEDTAVYYCNARWHAEYDYWGQGTQVTVSS”, the “polyreactivity (PSR sort gate)” value is reported as “low polyreactivity”.
In the case of “QVQLVESGGGLVQAGGSLRLSCAASGSTFYGYTMGWYRQAPGKERELVAVITSGGSTYYADSVKGRFTISRDNAKNTVYLQMNSLKPEDTAVYYCAKRYGYPAYGRPCRIGRTYDYWGQGTQVTVSS”, the “polyreactivity (PSR sort gate)” value is reported as “low polyreactivity”.
For “QVQLVESGGGLVQAGGSLRLSCAASGSTFYHYTMGWYRQAPGKERELVAAITYSGGRTYYADSVKGRFTISRDNAKNTVYLQKNSLKPEDTAVYYCAATYSTPGAGYYHYWGQGTQVTVSS”, the “polyreactivity (PSR sort gate)” value was “high polyreactivity”.
For “QVQLVESGGGLVQAGGSLRLSCAASGSTFYIYAMGWYRPAPGKERELVAAIDWTGSTYYADSVKGRFTISRDNAKNTVNLQMNSLKPEDTAVYYCAAYYDLEDDSYRLNSWGQGTQVTVSS”, the “polyreactivity (PSR sort gate)” value was “high polyreactivity”.
With “QVQLVESGGGLVQAGGSLRLSCAASGSTFYIYAMGWYRQAPGKERELVAAISGRGGSTYYADSVKGRFTISRDNAKNTVYLQMNSLKPEDTAVYYCATSLRVRRSSRDYWGQGTQVTVSS” the “polyreactivity (PSR sort gate)” value was “high polyreactivity”.
In the case of “QVQLVESGGGLVQAGGSLRLSCAASGSTFYIYAMGWYRQAPGKERELVARITRGGTTYADSVKGRFTISRDNAKNTVYLQINSLKPEDTAVYYCAARSFNIRGRYDYWGQGTQVTVSS”, the “polyreactivity (PSR sort gate)” value is reported as “high polyreactivity”.
With “QVQLVESGGGLVQAGGSLRLSCAASGSTFYIYAMGWYRQAPGKERELVASIRLSTGRTNYADSVKGRFTISRDNAKNTVYLQMNSLKPEDTAVYYCAAAGYRGGGYWGQGTQVTVSS” the “polyreactivity (PSR sort gate)” value was “high polyreactivity”.
With “QVQLVESGGGLVQAGGSLRLSCAASGSTFYIYAMGWYRQAPGQERELVATISWSGGSTYYADSVKGRFTISRDNAKNTVYLQMNSLKPEDTAVYYCAVRPGFGRSLWYGYWGQGTQVTVSS” the “polyreactivity (PSR sort gate)” value was “high polyreactivity”.
In the case of “QVQLVESGGGLVQAGGSLRLSCAASGSTFYIYAMGWYRQSPGKERELVAVITRGGSTYYADSVKGRFTISRDNAKNTVYLQMNSLKPEDTAVYYCAARYWNGTRDTYGSWGQGTQVTVSS”, the “polyreactivity (PSR sort gate)” value is reported as “high polyreactivity”.
For “QVQLVESGGGLVQAGGSLRLSCAASGSTFYKNAMGWYRQAPGKERELVARISGRGGSTYYADSVKCRFTISRDNAKNSVYLQMNSLKPEDTAVYYCNAVKYSSSAALYDYWGQGTQVTVSS”, the “polyreactivity (PSR sort gate)” value was “high polyreactivity”.
In the case of “QVQLVESGGGLVQAGGSLRLSCAASGSTFYKNTMGWYRQAPGKERELVATISSGDSTYADSVKGRFTISRDNAKNTVYLQMNSLKPEDTAVYYCAAASDLPGTGGYDYWGPGTQVTVSS”, the “polyreactivity (PSR sort gate)” value is reported as “low polyreactivity”.
In the case of “QVQLVESGGGLVQAGGSLRLSCAASGSTFYLNAMGSYRQAPGKERELVAAISSGGRTYYADSVKGRFPISRDNAKNTDYLQMNSLKPEDTAVYYCNAVRYLRGAYNYWGQGTQVTVSS”, the “polyreactivity (PSR sort gate)” value is reported as “high polyreactivity”.
With “QVQLVESGGGLVQAGGSLRLSCAASGSTFYLNAMGWYRQAPGKERELVAAISSGGNTNYADSVKGRFTISRDNAKNTVYLQMNSLKPEDTAVYYCAAVYLSWYGLGEYWGQGTQVTVSS” the “polyreactivity (PSR sort gate)” value was “low polyreactivity”.
With “QVQLVESGGGLVQAGGSLRLSCAASGSTFYLNAMGWYRQAPGKERELVAVITRSGGNTYYADSVKGRFTISRDNAKNTVYLQMNSLKPEDTAVYYCNKRPTGGKYEYWGQGTQVTVSS” the “polyreactivity (PSR sort gate)” value was “high polyreactivity”.
With “QVQLVESGGGLVQAGGSLRLSCAASGSTFYLNPMGWYRQAPGKERELVAVITSSGGSTNYADSVKGRFTISRDNAKITVYLQMNSLKPEDSAVYYCNRRPYPSYDYWGHGTQVTVSS” the “polyreactivity (PSR sort gate)” value was “low polyreactivity”.
For “QVQLVESGGGLVQAGGSLRLSCAASGSTFYLYAMGWYRQAPGKEREFVAAITYSAGSTYYADSVKGRFTISRDNAKNTVYLQMNSLKPEDTAVYYCAARHYAVRRSRYPGKLGYYWGQGTQVTVSS”, the “polyreactivity (PSR sort gate)” value was “high polyreactivity”.
